This note sets out measurements from US20240117334A1, “FACTOR B PROTEASES” (Vertex Pharmaceuticals Incorporated, priority 2021, published 2024).

Sequences and labels used below:
B1: chymase C22S/L99R/F173L/K192R/Y215H/R217T/S218V/A226R (enzyme)
chain: IIGGTESKPHSRPYMAYLEIVTSNGPSKFCGGFLIRRNFVLTAAHCAGRSITVTLGAHNITEEEDTWQKLEVIKQFRHPKYNTSTRHHDIMLLKLKEKASLTLAVGTLPFPSQFNFVPPGRMCRVAGWGRTGVLKPGSDTLQEVKLRLMDPQACSHLRDFDHNLQLCVGNPRKTKSAFRGDSGGPLLCAGVAQGIVSHGTVDAKPPRVFTRISHYRPWINQILQAN
B2: chymase C22S/L99F/F173K/K192R/R217S/S218I/A226R (enzyme)
chain: IIGGTESKPHSRPYMAYLEIVTSNGPSKFCGGFLIRRNFVLTAAHCAGRSITVTLGAHNITEEEDTWQKLEVIKQFRHPKYNTSTFHHDIMLLKLKEKASLTLAVGTLPFPSQFNFVPPGRMCRVAGWGRTGVLKPGSDTLQEVKLRLMDPQACSHKRDFDHNLQLCVGNPRKTKSAFRGDSGGPLLCAGVAQGIVSYGSIDAKPPRVFTRISHYRPWINQILQAN
B3: chymase C22S/K40L/F41V/G151R/K192R/A226R (enzyme)
chain: IIGGTESKPHSRPYMAYLEIVTSNGPSLVCGGFLIRRNFVLTAAHCAGRSITVTLGAHNITEEEDTWQKLEVIKQFRHPKYNTSTLHHDIMLLKLKEKASLTLAVGTLPFPSQFNFVPPGRMCRVAGWGRTGVLKPRSDTLQEVKLRLMDPQACSHFRDFDHNLQLCVGNPRKTKSAFRGDSGGPLLCAGVAQGIVSYGRSDAKPPRVFTRISHYRPWINQILQAN
B4: chymase C22S/L99Y/F173L/K192R/Y215H/R217T/S218V/A226R (enzyme)
chain: IIGGTESKPHSRPYMAYLEIVTSNGPSKFCGGFLIRRNFVLTAAHCAGRSITVTLGAHNITEEEDTWQKLEVIKQFRHPKYNTSTYHHDIMLLKLKEKASLTLAVGTLPFPSQFNFVPPGRMCRVAGWGRTGVLKPGSDTLQEVKLRLMDPQACSHLRDFDHNLQLCVGNPRKTKSAFRGDSGGPLLCAGVAQGIVSHGTVDAKPPRVFTRISHYRPWINQILQAN
B5: chymase C22S/K40L/F41A/K192R/A226R (enzyme)
chain: IIGGTESKPHSRPYMAYLEIVTSNGPSLACGGFLIRRNFVLTAAHCAGRSITVTLGAHNITEEEDTWQKLEVIKQFRHPKYNTSTLHHDIMLLKLKEKASLTLAVGTLPFPSQFNFVPPGRMCRVAGWGRTGVLKPGSDTLQEVKLRLMDPQACSHFRDFDHNLQLCVGNPRKTKSAFRGDSGGPLLCAGVAQGIVSYGRSDAKPPRVFTRISHYRPWINQILQAN
B6: chymase C22S/K40M/F41V/G151R/K192R/A226R (enzyme)
chain: IIGGTESKPHSRPYMAYLEIVTSNGPSMVCGGFLIRRNFVLTAAHCAGRSITVTLGAHNITEEEDTWQKLEVIKQFRHPKYNTSTLHHDIMLLKLKEKASLTLAVGTLPFPSQFNFVPPGRMCRVAGWGRTGVLKPRSDTLQEVKLRLMDPQACSHFRDFDHNLQLCVGNPRKTKSAFRGDSGGPLLCAGVAQGIVSYGRSDAKPPRVFTRISHYRPWINQILQAN
B7: chymase C22S/L99W/F173K/K192R/R217S/S218V/A226R (enzyme)
chain: IIGGTESKPHSRPYMAYLEIVTSNGPSKFCGGFLIRRNFVLTAAHCAGRSITVTLGAHNITEEEDTWQKLEVIKQFRHPKYNTSTWHHDIMLLKLKEKASLTLAVGTLPFPSQFNFVPPGRMCRVAGWGRTGVLKPGSDTLQEVKLRLMDPQACSHKRDFDHNLQLCVGNPRKTKSAFRGDSGGPLLCAGVAQGIVSYGSVDAKPPRVFTRISHYRPWINQILQAN
B8: chymase C22S/L99H/F173Y/K192R/Y215K/R217S/S218V/A226R (enzyme)
chain: IIGGTESKPHSRPYMAYLEIVTSNGPSKFCGGFLIRRNFVLTAAHCAGRSITVTLGAHNITEEEDTWQKLEVIKQFRHPKYNTSTHHHDIMLLKLKEKASLTLAVGTLPFPSQFNFVPPGRMCRVAGWGRTGVLKPGSDTLQEVKLRLMDPQACSHYRDFDHNLQLCVGNPRKTKSAFRGDSGGPLLCAGVAQGIVSKGSVDAKPPRVFTRISHYRPWINQILQAN
B9: chymase C22S/L99W/F173K/R217S/S218R/A226R (enzyme)
chain: IIGGTESKPHSRPYMAYLEIVTSNGPSKFCGGFLIRRNFVLTAAHCAGRSITVTLGAHNITEEEDTWQKLEVIKQFRHPKYNTSTWHHDIMLLKLKEKASLTLAVGTLPFPSQFNFVPPGRMCRVAGWGRTGVLKPGSDTLQEVKLRLMDPQACSHKRDFDHNLQLCVGNPRKTKSAFKGDSGGPLLCAGVAQGIVSYGSRDAKPPRVFTRISHYRPWINQILQAN
B10: chymase C22S/P38Q/K40M/F41R/L99N/V138I/F173Y/D175F/A190S/V213A/S218V/A226R (enzyme)
chain: IIGGTESKPHSRPYMAYLEIVTSNGQSMRCGGFLIRRNFVLTAAHCAGRSITVTLGAHNITEEEDTWQKLEVIKQFRHPKYNTSTNHHDIMLLKLKEKASLTLAVGTLPFPSQFNFVPPGRMCRIAGWGRTGVLKPGSDTLQEVKLRLMDPQACSHYRFFDHNLQLCVGNPRKTKSSFKGDSGGPLLCAGVAQGIASYGRVDAKPPRVFTRISHYRPWINQILQAN
B11: chymase C22S/P38Q/K40M/F41R/V138I/F173Y/D175Y/A190S/V213A/S218I/A226R (enzyme)
chain: IIGGTESKPHSRPYMAYLEIVTSNGQSMRCGGFLIRRNFVLTAAHCAGRSITVTLGAHNITEEEDTWQKLEVIKQFRHPKYNTSTLHHDIMLLKLKEKASLTLAVGTLPFPSQFNFVPPGRMCRIAGWGRTGVLKPGSDTLQEVKLRLMDPQACSHYRYFDHNLQLCVGNPRKTKSSFKGDSGGPLLCAGVAQGIASYGRIDAKPPRVFTRISHYRPWINQILQAN
B12: chymase C22S/P38Q/K40M/F41R/V138I/F173L/D175R/A190S/V213A/S218T/A226R (enzyme)
chain: IIGGTESKPHSRPYMAYLEIVTSNGQSMRCGGFLIRRNFVLTAAHCAGRSITVTLGAHNITEEEDTWQKLEVIKQFRHPKYNTSTLHHDIMLLKLKEKASLTLAVGTLPFPSQFNFVPPGRMCRIAGWGRTGVLKPGSDTLQEVKLRLMDPQACSHLRRFDHNLQLCVGNPRKTKSSFKGDSGGPLLCAGVAQGIASYGRTDAKPPRVFTRISHYRPWINQILQAN
B13: chymase C22S/P38Q/K40M/F41R/L99N/V138I/F173Y/D175W/A190S/V213A/S218T/A226R (enzyme)
chain: IIGGTESKPHSRPYMAYLEIVTSNGQSMRCGGFLIRRNFVLTAAHCAGRSITVTLGAHNITEEEDTWQKLEVIKQFRHPKYNTSTNHHDIMLLKLKEKASLTLAVGTLPFPSQFNFVPPGRMCRIAGWGRTGVLKPGSDTLQEVKLRLMDPQACSHYRWFDHNLQLCVGNPRKTKSSFKGDSGGPLLCAGVAQGIASYGRTDAKPPRVFTRISHYRPWINQILQAN
B14: chymase C22S/P38Q/K40A/F41K/L99N/V138I/D175H/A190S/V213A/S218V/A226R (enzyme)
chain: IIGGTESKPHSRPYMAYLEIVTSNGQSAKCGGFLIRRNFVLTAAHCAGRSITVTLGAHNITEEEDTWQKLEVIKQFRHPKYNTSTNHHDIMLLKLKEKASLTLAVGTLPFPSQFNFVPPGRMCRIAGWGRTGVLKPGSDTLQEVKLRLMDPQACSHFRHFDHNLQLCVGNPRKTKSSFKGDSGGPLLCAGVAQGIASYGRVDAKPPRVFTRISHYRPWINQILQAN
B15: chymase C22S/P38Q/K40L/F41R/L99Y/V138I/F173Y/D175N/A190S/V213A/S218V/A226R (enzyme)
chain: IIGGTESKPHSRPYMAYLEIVTSNGQSLRCGGFLIRRNFVLTAAHCAGRSITVTLGAHNITEEEDTWQKLEVIKQFRHPKYNTSTYHHDIMLLKLKEKASLTLAVGTLPFPSQFNFVPPGRMCRIAGWGRTGVLKPGSDTLQEVKLRLMDPQACSHYRNFDHNLQLCVGNPRKTKSSFKGDSGGPLLCAGVAQGIASYGRVDAKPPRVFTRISHYRPWINQILQAN
B16: chymase C22S/P38Q/K40A/F41R/L99H/V138I/D175N/A190S/V213A/S218I/A226R (enzyme)
chain: IIGGTESKPHSRPYMAYLEIVTSNGQSARCGGFLIRRNFVLTAAHCAGRSITVTLGAHNITEEEDTWQKLEVIKQFRHPKYNTSTHHHDIMLLKLKEKASLTLAVGTLPFPSQFNFVPPGRMCRIAGWGRTGVLKPGSDTLQEVKLRLMDPQACSHFRNFDHNLQLCVGNPRKTKSSFKGDSGGPLLCAGVAQGIASYGRIDAKPPRVFTRISHYRPWINQILQAN
B17: chymase C22S/L99R/F173Y/K192R/S218L/A226R (enzyme)
chain: IIGGTESKPHSRPYMAYLEIVTSNGPSKFCGGFLIRRNFVLTAAHCAGRSITVTLGAHNITEEEDTWQKLEVIKQFRHPKYNTSTRHHDIMLLKLKEKASLTLAVGTLPFPSQFNFVPPGRMCRVAGWGRTGVLKPGSDTLQEVKLRLMDPQACSHYRDFDHNLQLCVGNPRKTKSAFRGDSGGPLLCAGVAQGIVSYGRLDAKPPRVFTRISHYRPWINQILQAN
B18: chymase C22S/P38Q/K40L/F41R/V138I/F173Y/D175R/A190S/V213A/S218T/A226R (enzyme)
chain: IIGGTESKPHSRPYMAYLEIVTSNGQSLRCGGFLIRRNFVLTAAHCAGRSITVTLGAHNITEEEDTWQKLEVIKQFRHPKYNTSTLHHDIMLLKLKEKASLTLAVGTLPFPSQFNFVPPGRMCRIAGWGRTGVLKPGSDTLQEVKLRLMDPQACSHYRRFDHNLQLCVGNPRKTKSSFKGDSGGPLLCAGVAQGIASYGRTDAKPPRVFTRISHYRPWINQILQAN
B19: chymase C22S/K40M/F41V/K192R/A226R (enzyme)
chain: IIGGTESKPHSRPYMAYLEIVTSNGPSMVCGGFLIRRNFVLTAAHCAGRSITVTLGAHNITEEEDTWQKLEVIKQFRHPKYNTSTLHHDIMLLKLKEKASLTLAVGTLPFPSQFNFVPPGRMCRVAGWGRTGVLKPGSDTLQEVKLRLMDPQACSHFRDFDHNLQLCVGNPRKTKSAFRGDSGGPLLCAGVAQGIVSYGRSDAKPPRVFTRISHYRPWINQILQAN
B20: chymase C22S/P38Q/K40M/F41R/V138I/F173S/D175Y/A190S/V213A/S218V/A226R (enzyme)
chain: IIGGTESKPHSRPYMAYLEIVTSNGQSMRCGGFLIRRNFVLTAAHCAGRSITVTLGAHNITEEEDTWQKLEVIKQFRHPKYNTSTLHHDIMLLKLKEKASLTLAVGTLPFPSQFNFVPPGRMCRIAGWGRTGVLKPGSDTLQEVKLRLMDPQACSHSRYFDHNLQLCVGNPRKTKSSFKGDSGGPLLCAGVAQGIASYGRVDAKPPRVFTRISHYRPWINQILQAN
B21: chymase C22S/P38Q/K40M/F41R/L99S/V138I/F173Y/D175N/A190S/V213A/S218V/A226R (enzyme)
chain: IIGGTESKPHSRPYMAYLEIVTSNGQSMRCGGFLIRRNFVLTAAHCAGRSITVTLGAHNITEEEDTWQKLEVIKQFRHPKYNTSTSHHDIMLLKLKEKASLTLAVGTLPFPSQFNFVPPGRMCRIAGWGRTGVLKPGSDTLQEVKLRLMDPQACSHYRNFDHNLQLCVGNPRKTKSSFKGDSGGPLLCAGVAQGIASYGRVDAKPPRVFTRISHYRPWINQILQAN

This assay deals with Human Factor B (human) (UniProt P00751). Description: cell-based or functional assay.
Human Factor B (human), sequence (P00751 26-764 limits assumed): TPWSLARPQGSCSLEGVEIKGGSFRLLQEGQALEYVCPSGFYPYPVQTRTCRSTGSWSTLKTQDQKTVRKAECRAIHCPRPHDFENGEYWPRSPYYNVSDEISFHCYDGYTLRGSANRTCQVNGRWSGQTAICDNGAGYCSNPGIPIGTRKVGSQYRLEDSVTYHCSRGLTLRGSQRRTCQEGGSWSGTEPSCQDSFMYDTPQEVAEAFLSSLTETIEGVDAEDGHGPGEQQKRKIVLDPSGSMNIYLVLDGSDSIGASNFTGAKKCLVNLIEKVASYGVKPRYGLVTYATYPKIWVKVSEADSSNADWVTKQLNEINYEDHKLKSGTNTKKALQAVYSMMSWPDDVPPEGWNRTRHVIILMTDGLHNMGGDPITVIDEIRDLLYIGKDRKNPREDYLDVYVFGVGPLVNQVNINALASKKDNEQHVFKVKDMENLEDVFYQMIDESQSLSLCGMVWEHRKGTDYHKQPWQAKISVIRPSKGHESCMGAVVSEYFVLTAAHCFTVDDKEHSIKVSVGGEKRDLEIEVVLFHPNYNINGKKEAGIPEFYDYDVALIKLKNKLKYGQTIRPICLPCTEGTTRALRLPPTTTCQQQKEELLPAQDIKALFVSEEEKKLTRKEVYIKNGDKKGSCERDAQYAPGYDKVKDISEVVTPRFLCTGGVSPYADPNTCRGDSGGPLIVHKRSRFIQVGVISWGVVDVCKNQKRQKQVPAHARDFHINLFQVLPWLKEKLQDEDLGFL
Molecule B1 had a fB Cleavage EC50 of 7.77 µM; a fB Cleavage, 64% A2M-depl plasma EC50 of 2.29 µM; a fB Cleavage, 64% plasma EC50 of 4.38 µM; a fB Cleavage, 80% plasma EC50 of 7.59 µM.

Take B2: the fB Cleavage EC50 worked out at 4 µM.

Consider B3, for which the fB Cleavage EC50 was 7.5 µM.

B4 yielded a fB Cleavage, 64% A2M-depl plasma EC50 of 4.58 µM and a fB Cleavage, 64% plasma EC50 of 12.4 µM.

B5 gave a fB Cleavage EC50 of 7.39 µM.

In the case of B6, the fB Cleavage EC50 was 7.77 µM.

Regarding B7, the fB Cleavage EC50 was determined as 2.49 µM.

As for B8, the fB Cleavage EC50 was determined as 3.46 µM.

With B9, the fB Cleavage EC50 amounted to 2.66 µM.

As to B10, the fB Cleavage EC50 is 0.193 µM.

Molecule B11 gave a fB Cleavage EC50 of 0.465 µM.

In turn, B12 had a fB Cleavage EC50 of 0.051 µM.

B13 had a fB Cleavage EC50 of 0.5 µM.

For the molecule B14, the fB Cleavage EC50 is 0.121 µM.

B15: the fB Cleavage EC50 was 0.057 µM.

In turn, B16 displayed a fB Cleavage EC50 of 0.17 µM.

Turning to B17, the fB Cleavage EC50 is 0.555 µM.

For B18, the fB Cleavage EC50 came out at 0.223 µM.

With B19, the fB Cleavage EC50 stood at 7.77 µM.

With B20, the fB Cleavage EC50 came to 0.287 µM.

B21 returned a fB Cleavage EC50 of 0.472 µM.
